Experimental findings from paper PMC8301015, “Atypical Bacilliredoxin AbxC Plays a Role in Responding to Oxidative Stress in Radiation-Resistant Bacterium Deinococcus radiodurans” (Antioxidants, 2021) are described below.

The data set concerns the molecule itself. Description: non-reducing SDS-PAGE; purified AbxC 0.5 mg/mL in PBS, 15 min, without or with increasing concentrations of H2O2 (or oxidised with diamide); 12% gel, non-reducing; disulfide-linked dimer against monomer.

B1: AbxC (atypical BrxC; DR_1832), C-terminal His x 6 tag (enzyme, Deinococcus radiodurans, UniProt Q9RTD3 1-211, looked up)
chain: MTQGQDQVLSPLTTPDEVDQFLKDYPLAAVFKAGTCHKTMQGFGVLETFLQRYELPVGFIRVVDWRPASNHVAELTGLTHHSPQFILFKDGQAQYEVNNWDITPEALGPVFEQQVPQRSGAAQVDAGDSVEPYRQLMQAYLAGQLSDWAFQDQYVTMFRDDASLRSQREFELLSRLFGDPDAYHGGLHQLGAPQDRGDLKARVQSVLDQLG
notes: AbxC (DR_1832), Deinococcus radiodurans R1; monomer 23.7 kDa; single cysteine Cys36; also called putative homolog of BrxC (YtxJ); source: E. coli BL21-CodonPlus (DE3)-RP, purified (Ni-NTA, Superdex 75HR)
B1: the “stoichiometry N” value was 2.
